The values below come from US8067005.

In this assay the target is T1, human TNF (human, UniProt P01375 77-233).
T1 construct: Passed over captured antibody in solution; also called human TNFα
The assay can be described thus: SPR (BIAcore); antibody captured by immobilized anti-Fab′ antibody, human TNF passed over.

T1 sequence (P01375 77-233 limits assumed): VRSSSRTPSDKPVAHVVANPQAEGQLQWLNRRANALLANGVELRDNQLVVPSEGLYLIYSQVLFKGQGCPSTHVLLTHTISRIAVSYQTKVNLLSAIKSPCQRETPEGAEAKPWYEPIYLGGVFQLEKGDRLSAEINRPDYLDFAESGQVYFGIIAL

B1: hTNF40 IgG (antibody, V domains shown)
VH: QIQLVQSGPELKKPGETVKISCKASGYVFTDYGMNWVKQAPGKAFKWMGWINTYIGEPIYVDDFKGRFAFSLETSASTAFLQINNLKNEDTATYFCARGYRSYAMDYWGQGTSVTVSS
VL: DIVMTQSQKFMSTSVGDRVSVTCKATQNVGTNVAWYQQKPGQSPKALIYSASFLYSGVPYRFTGSGSGTDFTLTISTVQSEDLAEYFCQQYNIYPLTFGAGTKLELKR
Molecule B1 showed a Kd of 0.179 nM.
